Tests used:
Type in all cases: biochemical, Quillaja saponaria
[1] = Experiment 5-2: screening of additional glucosidases for deglycosylation with QS-18 in crude bark extract (80%) at pH 6 and 35 deg C; settings: CBE 80%, pH 6, 35 deg C, 18 hours; UV HPLC
How it was run: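 Deglycosylation of QS-18 was monitored by UV HPLC after MeCN/AcOH quench with hexanophenone. The reaction ran 18 hours at 35 deg C, shaking, combining clarified pH 6 lysate with crude bark extract neutralised to pH 6 by NaOH.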

[2] = Experiment 5-1: screening of additional glucosidases for deglycosylation with purified QS-18 (0.04 mg/ml) at pH 7.5 and 30 deg C; settings: pH 7.5, 30 degrees C, 18 hours, LCMS/MS
Procedure: The 94 additional genes, together with positive control (DNA encoding SEQ ID No. 262) and negative control, were transformed, expressed, lysed and reacted in the same manner as described above for Experiment 4-1, except the reaction was incubated at 30 degrees C. for 18 hours.
Samples were analysed by LCMS/MS according to the procedure in Experiment 4-1.

[3] = Experiment 5-3: screening of additional glucosidases for deglycosylation with QS-18 in treated bark extract (80%) at pH 6 and 35 deg C; settings: TBE 80% (QS-21 approx. 4 g/L), pH 6, 35 deg C; UV HPLC
Procedure: Experiment 5-1 was repeated, replacing CBE with Treated Bark Extract (TBE) at pH 6. TBE was prepared from CBE by PVPP treatment and concentration, to provide TBE with a QS-21 concentration of approximately 4 g/L. TBE was adjusted to pH 6 by dropwise addition of 2M NaOH with stirring.

B1: 890 (protein, listed as Arthrobacter ulcerisalmonis)
chain: MNLPLSPAVTAPAAGSPDAEALIHNLADSLSLAEQVQLLTGADVWSTHTLPSIGLSRIVLSDGPAGVRGEDFDERHDSVSLPSSSALSASWSAELAHRYGQVLGQEARRKGVHAVLGPTINLHRSPLGGRHFECMSEDPRLTATMAAGYVAGVQSMGVGATPKHYLANESETDRFTVDSVVAERPLRELYLAAFEDAITESRAWLVMSSYNSINGTTASENDLLETPLSTEWGFDGVVVSDWTGVRSVEAANAHQDLEMPGPVGHWSAKLLAAVESGQVSREAIVEKVVRILRLAARVGSLDGVSPAVAELPAALDSAAVAREVAIRGAVLIRNSAGLLPLDASALTSVALSGHNADEARTQGGGSATVMPKQNISPLMGLREALPATTSLSYTRGAKVAEGLQQFARTALHNPVSNVPGARVTFLDASGTEIFAEDRLASSLIWFGVGIPEGTAAITISTDWTAEQAGVHHLGLGTVGQARLSFNGTEVFNGELLDTTNVLGAALFDPPSTVHQIETTAGETVRIEAHYTLPPEQFIPLTAILLGEEAVVTDPQAEIDDAVAAASSADVAIVVVGTNSSIESEGFDRSNLDLPGHQNELVRAVAAANPRTIVVVNSGSPVLMPWLEDVGAVLLGWFGGQEFGRAIADILLGVAEPGGRLPTSWPAALADVPVLSTTPVEGKLEYAEGIHVGYRAWLQQQAAGGPAPAVPFGFGLGYTSFEFSAPHAPQQVQAGNDVIVHVPVRNTGSRAGREVVQVYLERPDSTVERPVRWLAGFAGTHLAPAGTESVEVRIPARAFEHYDGGWQVERGAFRILVGKHVEDDFQVLAIDVR
**Q.** With B1 as the molecule, how does the “Experiment 5-2 % conv” value [1] read?
**A.** The value was less than 0.5%.

**Q.** What about the “Experiment 5-1 % conv” value [2] of the same molecule?
**A.** The value was 12.6%.

**Q.** What about the “Experiment 5-3 % conv” value [3] of the same molecule?
**A.** The value was less than 0.5%.

B2: 803 (protein, listed as Penicillium italicum)
chain: MVQEKDISTADAVLASLTLEEKVSLLAGGSFWSTAAIPGKSIPSVKFSDGPNGARGSEMKGGPTSACFPCAVSLAATWNLDAIKEVGKALAEETKTKGANLLLGPTVCPHRHPLGGRNFESFSEDPFLSGMMASEYIVGLQGQGIGAAIKHFAANEQETFRNILDVTVSMRALREIYLKPFEIAIKQAKPWALMTAYNSVNGSHADCNSTLLQQILREEWKWDGLVLSDWGGTNSLVESLTAGLDLEMPGPPTVRKSELIMQALESNAIPESIINDRARAVLRFVATTTGFGPQKECKEYADDRPSHRELIRQVGREGIVLLKNEDDILPLKHTASAGSLTKIALLGFADEALIHGGGSAAVNAHHRITLAEGLRDAFKDRGLEIECAKGAHTLRKLPLMVDHVKNDEGKPGWSMQFLHPKDPAGVWRHIGEPSYTPTAPGNEGMTVRATTQFCVPASGRHYLSLSGLGPSSLKINGDEVYRQDGNCPDLMAFILTSYADIPVQYDFVAGQTYHIEVLSNPLEAYNGPSFMNGRAGFSVGFMLEAERDADLLAEAVTLASRSDIAIILTGNTAEWEAEGQDQVGFHLPRDGSQDRLVSAVAAANKSTIVVNCTGGPIAMPWIHEVKALLQAWFPGQEAGHSIADILVGDRFPSGRLPVTFPRAIEDTPAYRNFPGGFEEDGRARVRYEEGVFVGYRFYDHTPEQREKVLFPFGYGLSYTSFTLHDISLATLKDHHENHIEVRVSVSNVGKRRGTETIQVYVGRADHSEQHPWKTLVAFAQVSLDAGETREMSLELSRRDLAFYDESTEHWVVEASDYLVHVGTSVFEIASTERLHIPERIDYAL
**Q.** For B2, which “Experiment 5-2 % conv” value [1] is on record?
**A.** Its value is less than 0.5%.

**Q.** What about the “Experiment 5-1 % conv” value [2] of the same molecule?
**A.** The value was 13.1%.

**Q.** What about the “Experiment 5-3 % conv” value [3] of the same molecule?
**A.** The value was less than 0.5%.

B3: 810 (protein, listed as Cutibacterium avidum)
chain: MTPAEITDLISQLTLEEKASLCSGGDSWHLQTVEKLGIPGPMVTDGPHGLRKVADGSMAGIYDSVPATCFPTAAGLASTWDPELVHDIGVALGEETRAESVSVLLGPGINMKRSPLCGRNFEYFSEDPVLAGTLATELVRGIQSQGVGTSLKHFAANNQETDRLRVNAEIDERTLREIYLPAFEMVVKQADPWTVMCSYNAINGVYSSQNRWLLTELLHEEWGYKGLVISDWGAVVNRVEGLRAGLDLEMPGDAPRNDARIVEAVRSGDLDEEILDTAVARILSLIARASAAMADPGSYDIEAHHQLARRAAAASVVLLKNDGDVLPLIDPDDVVVIGEFARTPRYQGAGSSKVNPTRVDTALDSLRQTWDDVPFAPGFTLTDHPDPQLADEAVSLSRGKTAVLFLGLPAVAESEGYDRTNTDLPTDQIDLLARVRKVASHTIVVLSNGSSVGTAEWDDQADAIVECWLGGQASGSGVIDVLTGKVNPSGHLAETITRKLSDIPAQLNFPGEFQHVTYGEGRYIGYRGLDATEREVAYPFGHGLSYTTFAYCDLDLLVRPVSDETAQDETVLTVSFTVSNTGDRAGATVPQVYLGFPDATVDRCVRELKAFLRVELDPGESRSITIDLTRRDLSYWDILLHSWTVEPGTVRVEVGISSRDLPLTGEVILDAPTVRHPLRRDSTVAEWMDADEEFAAKVRRATEQTGIDLDSDPTTAAFILAMPAYKMLQMAPIMTPEELDKMLGD
**Q.** What does the source list for B3?
**A.** Experiment 5-2 % conv [1]: <0.5%; Experiment 5-1 % conv [2]: 22.7%; Experiment 5-3 % conv [3]: <0.5%

B4: 849 (protein, listed as Bifidobacterium merycicum)
chain: MSDNTYPSVNDLTLEEEASLTSGGDAWHLQGVEAKGIPGYMITDGPHGLRKSLASNTGETDLNDSVPATCFPPAAGLSSSWNPELIRQVGEAMGEECIQEKVAVILGPGVNIKRNPLGGRCFEYWSEDPYLAGHEAVGIVAGVQSKGVGTSLKHFAANNQETDRLRVSANISQRALREIYFPAFEHIVKTAQPWTIMCSYNRINGVHSAQNRWLLTDVLRDEWGFEGIVMSDWGADHDRVASLNAGLNLEMPPTYTDDQIVYAARDGRIQPEQLDRMAQGMIDLVNKTRAAMSVEDYRFDVDAHNEIARRAAVESMVLLKNDDAILPVSRDAKIAVIGEFARTPRYQGGGSSHITPTKMTGFLDALAERGVPVDFAPGFTLDLEPTDPALEAEAVIAARDADVVLMFLGLPEAAESEGFDRDTLDIPAKQIELLKAVAAENKNVVVILSNGSVVSVAPWANNAKGILESWLLGQAGGAALADVIFGDVSPSGKLAQSVPMDINDDPSMINWPGEEGHVDYGEGVFVGYRYYDTYGKAVDYPFGYGLSYATFEIGGVKAVKTGANTARVSATVTNTSDVDAAETVQVYVAPGKADVARPKHELKAFRKVFLKAHESAEVSFDLDESAFAYWSEKFNDWHVEAGEYGIEVGMSSRDIAGVATVALDGDGKALPLTEWSTFGEWSADPVGSKVVADVREAGERGELPKLPDNDMMRMFLGSMPINSMSTLMGESGKAISSFMLDGYAKLVG
**Q.** For B4, which “Experiment 5-2 % conv” value [1] is on record?
**A.** Its value is less than 0.5%.

**Q.** What about the “Experiment 5-1 % conv” value [2] of the same molecule?
**A.** Its value is 17.8%.

**Q.** What about the “Experiment 5-3 % conv” value [3] of the same molecule?
**A.** The value was less than 0.5%.

B5: 841 (protein, listed as Mycetocola reblochoni)
chain: MTTPRPSLEQKAALTSGRDTWHSESLDDIPVMMMTDGPHGLRQQLQDGGDALGIGNSVPATCFPPAAGLASSWNTGLVERVGVALGTEARATEIRILLGPGLNIKRSPLGGRNFEYFSEDPRVSGELAAAMVTGIQSMGVAATPKHFAVNNQETDRLRVSAEVDERALREIYLSAFERVVTVASPWAFMSSYNRINGVYASENHWLLTELLREEWGFDGLVMSDWGAVNDRVAALAAGLELEMPPTGTDQLIVDAVRTGELDEAVLDRAVDRLRLLAERTERPPLTGYDADAHDDLARSAAQESIVLLKNADVLPLDAAATPRIAVVGEFARTPRYQGGGSSRVVPTRMHSALDALTDALGLGADGLSFSPGFALDGDTPAGAADEAVAAVEAADVAVLFLGLPDGTESEGFDRTTIALPAEQLHLLERAAATTTPVVVVLSNGAVVDVASWEHHADAILEAWLLGQAGGLAIADVLLGTVSPSGKLAETIPLDLADTPSHLSFPGRDGVVVYGESVYVGYRHYDTRRLPVAYPFGFGLSYTRFEYSELEVTATGRNSWTVAATVTNVGERRGAETVQLYIGVEQDRPDRPVHELRGFAKVDLEPGESARVELPVTERDLSHWSVRDGAWRVEKGRYTVELAAHSRDVRLATTITSEGDGVVTRLNGMSTVGEWLDHPYGREQIQWFIDGVDTRFGATAPEMIVMLKQLPIAKLTTFGIGLDSARIERMCAEAAADGERHGEQP
**Q.** What does the source list for B5?
**A.** Experiment 5-2 % conv [1]: <0.5%; Experiment 5-1 % conv [2]: 12.3%; Experiment 5-3 % conv [3]: <0.5%

B6: 894 (protein, listed as Microbacterium sp.)
chain: MSDSVAQPSVTDLTLEEKASLTSGADFWTTTAIDRAGVPSIMMTDGPHGLRKQADGNDHVGLANSVPATCFPPAVGLSATFDPELAVRVGEALGVESAIENVAVILGPGINIKRSPLCGRNFEYMSEDPIVSGVMGGALVRGIQSRGVGASLKHFAANNQETDRLRVSSDVDPRPLREIYLRGFQIAIEGAQPWTVMCSYNRINGAYASEDPWLLTSVLRDEWGFEGLVVSDWGAVNDRVAGVIAGLDLEMPSSGGATDAQLVAAVRDGSLDEAALDVVARRVLDLVQKAGRRPAIDGHLDIDAHHALAREVAGRAIVLLKNDDRVLPLAAEQKVAVIGAFAETPRFQGAGSSLINPTRLDSALDGFAEYAAEGAVTYAAGFALDGSGDADVLRAEAVAAASASEVAVVFLGIPASAESEGFDREHIDLPADQLALLDAVLVANPRTVVVLSNGGVVALPFADRVPAIIEGWLLGQAGGSATADVLYGAVNPSGRLAETIPVRLEDNPSYGNFPGEHGHVRYGEGLFVGYRWYDERGLDVTFPFGHGLSYTTFAYGDAQASVRSDGDMAVRIAVTNTGERAGRELVQVYTALQGSAVQRAPRELKAFQSVALEAGETREVELIVRRDDLAYWDVRVDRWVVEGGEYEVHVGASSRDIRSVASAEVAGDELVLPASLNSSITELLAHPVLGERMRALVAAAFGPGAESEGALQVLGSFPIGRLAAFPNVPATRDEIERMIAQA
**Q.** Which results are given for B6?
**A.** Experiment 5-2 % conv [1]: <0.5%; Experiment 5-1 % conv [2]: 21.3%; Experiment 5-3 % conv [3]: <0.5%

From patent US20240026407A1, “MODIFICATION OF SAPONINS” (GLAXOSMITHKLINE BIOLOGICALS SA, priority 2020, published 2024)
